These are literature values, as cited in paper PMC3633488.

What is called pKd is the Kd on a negative log10 scale, so that one unit is a factor of ten.

pKd: −log10 of the molar value.

The target in this data set is FGF-2 (Homo sapiens) (UniProt P09038).

Take perlecan (from UniProt P98160): the pKd is 7.15.
